Measured values published in patent publication US20240400703A1 (Genmab, published 2024).

Molecular target: T1, mouse OX40 expressed on ExpiCHO-S cells (mouse, UniProt P47741 20-272)
T1 construct: full-length entry; also called OX40mm; wild-type mouse OX40
T1 sequence: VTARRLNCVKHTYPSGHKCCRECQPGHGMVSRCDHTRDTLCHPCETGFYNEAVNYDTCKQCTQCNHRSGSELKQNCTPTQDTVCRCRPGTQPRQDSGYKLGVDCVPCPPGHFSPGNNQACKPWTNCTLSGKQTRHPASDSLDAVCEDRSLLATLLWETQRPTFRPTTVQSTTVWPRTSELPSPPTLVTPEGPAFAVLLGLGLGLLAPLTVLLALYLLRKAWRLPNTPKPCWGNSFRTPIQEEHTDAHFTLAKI
Test: not described (data not shown)

binding result: no binding
B1: IgG1-CD134-003-FEAL (antibody)
heavy: EQLKETGGGLVQPGGSLTLSCKASGFDFSSGYMSWVRQAPGKGLEWIGYIDPVFGSTYYASWVNGRFAISSHNAQNTLYLQLNSLTAADTATYFCARDLRAFYSGWGGINLWGPGTLVTVSSASTKGPSVFPLAPSSKSTSGGTAALGCLVKDYFPEPVTVSWNSGALTSGVHTFPAVLQSSGLYSLSSVVTVPSSSLGTQTYICNVNHKPSNTKVDKRVEPKSCDKTHTCPPCPAPEFEGGPSVFLFPPKPKDTLMISRTPEVTCVVVAVSHEDPEVKFNWYVDGVEVHNAKTKPREEQYNSTYRVVSVLTVLHQDWLNGKEYKCKVSNKALPAPIEKTISKAKGQPREPQVYTLPPSREEMTKNQVSLTCLVKGFYPSDIAVEWESNGQPENNYKTTPPVLDSDGSFLLYSKLTVDKSRWQQGNVFSCSVMHEALHNHYTQKSLSLSPG
light: AAVLTQTPSPVSAAVGGTVTIKCQSSQIVVNNNFLSWYQQKPGQPPKLLIYDASNLASGVPDRFSGSGSGTQFTLTISGVQSDDAATYYCLGGYDDDAENAFGGGTEVVVQRTVAAPSVFIFPPSDEQLKSGTASVVCLLNNFYPREAKVQWKVDNALQSGNSQESVTEQDSKDSTYSLSSTLTLSKADYEKHKVYACEVTHQGLSSPVTKSFNRGEC
notes: also called IgG1-CD134-003-L234F-L235E-D265A-F405L
